The subject of data set [1] is ZFN 48641 (mALB) (synthetic). The data set is described as follows: cell_activity. As to conditions: pair with 31523; mouse liver after third 2 mg/kg LNP dose.
A further data set has as its system mouse albumin. Put plainly: Indel analysis (nuclease activity) in livers of mice injected intravenously with ZFN mRNA LNPs. Type of data set: in vivo. The following applies: 48641/31523 mRNA LNP (II-9), single dose 2 mg/kg; FIG. 4B. On the procedure: 8-10 week old C57BL6 purchased from Charles River were injected intravenously through the tail vein with 200 uL of an aqueous solution containing diluted LNPs or a mixture of diluted LNPs and AAV donor encoding a human IDS or human FIX transgene containing homology arms flanking the ZFN cut site and a splice acceptor just upstream of the coding sequence of the transgene. Some animals were injected with 5 mg/kg dexamethasone intraperitoneally 30 minutes prior to LNP dosing. Animals were then sacrificed 7 days post LNP dosing or re-dosed with LNPs at either a 7 or 14 day interval before subsequent sacrifice and harvesting of liver tissue. Livers were snap frozen and a small portion of both the left and right lobes were dissected and harvested for gDNA using a FastPrep-24 Homogenizer (MP Biomedicals), Lysis Matrix D solution (MP Biomedicals), and a MasterPure DNA Purification kit (Epicentre).
Primers were designed to amplify approximately 200 bp of total genomic DNA sequence containing the ZFN cut site. Amplicons were then ran on either a Miseq or Nextseq (Illumina) and insertions and deletions (indels) from the wildtype genomic sequence were quantified.
To test the ability of targeted zinc finger nucleases to cleave a site in the mouse genome in vivo, mRNAs encoding albumin specific nucleases were incorporated into LNPs as described above using the cationic lipid I-6. […]

The test system of data set [2] is ZFN 31523 (mALB) (synthetic). The data set is described as follows: cell_activity. As to conditions: pair with 48641; mouse liver after third 2 mg/kg LNP dose.

The compound “CTGAAGGTGGCAATGGTTCCTCTCTGCT (double strand) [mouse ALB intron 1 left half-site]” came in with an activity in data set [1] of 25 % indels. Regarding `C[C@H]1C[C@@H]2[C@H]([C@@H](O)C[C@@]3(C)[C@H]2CC[C@]3(O)C(=O)COC(=O)CCC(=O)[O-])[C@@]2(C)C=CC(=O)C=C12.[Na+]` [Solumedrol®, methylprednisolone sodium succinate], the “nuclease activity, dexamethasone pretreatment vs Solumedrol pretreatment plus 3 days” value with mouse albumin was “slightly more efficacious”. The compound “TTTCCTGTAACGATCGGGAACTGGCATC (double strand) [mouse ALB intron 1 right half-site]” had an activity in data set [2] of 25 % indels.
